Data: US20240010680A1 (XIAMEN UNIVERSITY, published 2024)

These binders were tested against T1, hACE2 purified protein (human (printed as hACE2), UniProt Q9BYF1 18-740) (assay: SPR (Biacore T200), hACE2 amine-coupled to CM5 chip, peptide as analyte).
T1 construct: also called CM5-hACE2 chip
T1 sequence (Q9BYF1 18-740 limits assumed): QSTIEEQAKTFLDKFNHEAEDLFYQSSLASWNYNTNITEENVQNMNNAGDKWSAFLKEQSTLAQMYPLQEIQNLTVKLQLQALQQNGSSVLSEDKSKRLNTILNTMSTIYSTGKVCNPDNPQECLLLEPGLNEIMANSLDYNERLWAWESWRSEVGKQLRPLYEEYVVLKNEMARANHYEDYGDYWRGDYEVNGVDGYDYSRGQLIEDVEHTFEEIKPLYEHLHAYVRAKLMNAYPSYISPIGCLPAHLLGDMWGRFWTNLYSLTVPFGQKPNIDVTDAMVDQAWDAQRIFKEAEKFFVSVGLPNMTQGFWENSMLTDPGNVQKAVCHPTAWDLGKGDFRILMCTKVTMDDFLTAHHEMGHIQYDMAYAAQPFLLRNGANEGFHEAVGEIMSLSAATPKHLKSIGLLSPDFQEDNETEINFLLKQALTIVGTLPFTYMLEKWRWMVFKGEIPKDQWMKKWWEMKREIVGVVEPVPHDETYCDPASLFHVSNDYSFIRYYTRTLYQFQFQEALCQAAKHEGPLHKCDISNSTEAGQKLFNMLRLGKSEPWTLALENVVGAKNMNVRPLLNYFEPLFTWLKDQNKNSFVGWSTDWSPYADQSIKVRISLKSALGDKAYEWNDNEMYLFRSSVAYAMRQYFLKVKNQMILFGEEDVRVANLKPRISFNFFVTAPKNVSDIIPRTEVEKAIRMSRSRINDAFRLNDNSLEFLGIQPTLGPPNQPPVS
Method: Specific Steps: [0031] a. The GE Biacore T200 is started, the Series S Sensor Chip CM5 is embedded into the GE Biacore T200, the PBS is degassed to obtain a degassed PBS, and the degassed PBS is used throughout the experiment; [0032] b. The NHS, the EDC, the ethanolamine, and the hACE2 (1 mg/mL) are placed on a feeding plate of the GE Biacore T200 according to volumes indicated by the GE Biacore T200 using Eppendorf (EP) tubes in sufficient quantities; [0033] c. […] A mobile solution (the degassed PBS) is closed, a command window is closed, and a report is served to obtain a CM5-hACE2 chip;
Specific Steps: [0038] a. Preparing different dilutions as samples for testing: the peptides in Table 1 to be tested at a concentration of 3 mmol/L (mM) are dissolved and sequentially diluted into different dilutions of 100 μmol/L (μM), 60 μM, 30 μM, 10 μM, 3 μM, 1 μM, 0.3 μM, and 0 using the PBS to obtain the samples. Each of the different dilutions is ensured to have a volume of no less than 400 μL and separately packaged on EP tubes. The samples are placed on a test plate of the GE Biacore T200, and the test plate is stuck in a test slot; [0039] b.
Work on YKYKYL (also called YKYKYL; first peptide) [Peptide12] yielded a Kd of 21.4 µM. YRYRYL (also called YRYRYL; second peptide) [Peptide13] showed a Kd of 25.3 µM. Work on YSYIQK (also called YSYIQK; third peptide) [Peptide21] yielded a Kd of 36.8 µM. Binder YTYIQK (also called YTYIQK) [Peptide23] has a Kd of 46.5 µM.
